Laboratory results published in patent US20200157519A1 (IMMUNWORK, published 2020).

Columns and labels:
[1] = target: T1, crosslinked human fibrin treated by human factor XIIIa (human, UniProt P02671 36-629; P02675 45-491; P02679 27-437, crosslinked by factor XIIIa); assay: ELISA after storage at 4 C for 3 or 6 days, HRP-protein L
T1 construct: Coated human fibrinogen treated with thrombin and 0.55 ug factor XIIIa (Zedira) per well; also called crosslinked fibrin
T1 sequence (looked up) 1: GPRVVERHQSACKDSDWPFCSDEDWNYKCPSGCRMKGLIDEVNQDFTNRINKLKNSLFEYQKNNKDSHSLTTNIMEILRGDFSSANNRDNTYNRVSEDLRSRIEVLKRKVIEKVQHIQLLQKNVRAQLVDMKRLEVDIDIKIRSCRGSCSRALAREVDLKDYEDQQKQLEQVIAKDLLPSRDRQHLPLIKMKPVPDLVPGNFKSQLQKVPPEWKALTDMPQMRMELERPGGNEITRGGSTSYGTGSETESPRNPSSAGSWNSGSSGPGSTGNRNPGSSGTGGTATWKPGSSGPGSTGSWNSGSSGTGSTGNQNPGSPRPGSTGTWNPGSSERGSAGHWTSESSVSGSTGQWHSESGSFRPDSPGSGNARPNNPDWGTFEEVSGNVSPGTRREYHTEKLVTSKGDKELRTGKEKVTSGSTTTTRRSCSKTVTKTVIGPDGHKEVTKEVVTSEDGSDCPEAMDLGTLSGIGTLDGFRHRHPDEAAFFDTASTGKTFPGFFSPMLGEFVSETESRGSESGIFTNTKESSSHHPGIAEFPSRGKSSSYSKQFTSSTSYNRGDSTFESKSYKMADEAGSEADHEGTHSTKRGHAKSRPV
T1 sequence (looked up) 2: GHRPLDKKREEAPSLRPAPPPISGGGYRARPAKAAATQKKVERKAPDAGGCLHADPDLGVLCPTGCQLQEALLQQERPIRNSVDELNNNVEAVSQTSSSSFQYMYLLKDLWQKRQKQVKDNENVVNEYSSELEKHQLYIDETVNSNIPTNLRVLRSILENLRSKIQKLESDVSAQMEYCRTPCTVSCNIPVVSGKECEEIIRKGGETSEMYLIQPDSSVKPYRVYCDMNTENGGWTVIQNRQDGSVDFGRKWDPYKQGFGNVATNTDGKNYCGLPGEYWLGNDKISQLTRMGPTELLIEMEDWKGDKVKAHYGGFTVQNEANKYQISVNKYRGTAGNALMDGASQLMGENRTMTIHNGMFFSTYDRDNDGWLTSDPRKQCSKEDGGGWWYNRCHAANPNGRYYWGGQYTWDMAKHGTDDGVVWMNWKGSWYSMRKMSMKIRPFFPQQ
T1 sequence (looked up) 3: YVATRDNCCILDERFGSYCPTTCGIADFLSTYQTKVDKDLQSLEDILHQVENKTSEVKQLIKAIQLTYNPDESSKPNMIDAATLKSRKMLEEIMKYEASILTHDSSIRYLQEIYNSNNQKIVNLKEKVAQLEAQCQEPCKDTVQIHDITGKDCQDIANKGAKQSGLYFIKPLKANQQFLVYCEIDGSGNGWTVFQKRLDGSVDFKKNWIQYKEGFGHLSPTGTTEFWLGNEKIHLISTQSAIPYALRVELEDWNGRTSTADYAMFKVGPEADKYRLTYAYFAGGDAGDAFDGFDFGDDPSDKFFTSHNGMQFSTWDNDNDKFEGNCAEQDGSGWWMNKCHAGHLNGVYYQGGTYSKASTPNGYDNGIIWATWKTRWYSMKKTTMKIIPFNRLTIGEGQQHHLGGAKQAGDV
Experimental: (§1) To evaluate the stability of reteplase-(3D5 scFv) after storage, the reteplase-(3D5 scFv) was stored at 4° C. for 3, 6 and 30 days, and then SDS-PAGE and ELISA analysis were performed.
(§2) 96-well polystyrene microplates were coated with human fibrinogen (Sigma) (20 μg/mL) in PBS buffer (100 μL/well). After overnight incubation at 4° C., the coated wells were washed with PBS buffer. To induce the cross-linking of human fibrin, coated wells was incubated at 37° C. for 1 hour with human α-thrombin (Sigma) at a final concentration of 1 U/mL in TBS buffer with 2 mM CaCl₂ and 7 mM L-cystine (Merck). After blocking the wells with a blocking buffer (5% non-fat dry milk/PBS), 100 μL of reteplase-(3D5-scFv) at a final concentration of 0.1, 1 and 10 μg/mL were added to each well and incubate at room temperature for 1 hour. Thereafter, the plates were washed three times, and HRP-conjugated protein L diluted to 1/5000 was added to the wells and incubated for 1 hour at room temperature. The wells were washed three times and added with 100 μL of 3,3′,5,5′-Tetramethylbenzidine (TMB) substrate buffer. 5 minutes later, the color development was stopped with 1 M HCl. The optical density (OD) was measured at 450 nm using a microplate reader (Molecular Devices) and the data were processed using Graph Pad Prism software. […]

[2] = target: T2, human fibrin (human fibrinogen coated on the plate and treated with thrombin) (human, UniProt P02671 36-629; P02675 45-491; P02679 27-437); assay: as above
T2 construct: Made on the plate: coated human fibrinogen (Sigma) treated with 1.0 U/mL thrombin, CaCl2 and L-cysteine
T2 sequence (looked up) 1: T1 sequence (looked up) 1
T2 sequence (looked up) 2: T1 sequence (looked up) 2
T2 sequence (looked up) 3: T1 sequence (looked up) 3
Experimental: as §1, §2

B1: recombinant reteplase-(3D5 VL-218-VH scFv α fibrin) protein (other)
chain: SYQGNSDCYFGNGSAYRGTHSLTESGASCLPWNSMILIGKVYTAQNPSAQALGLGKHNYCRNPDGDAKPWCHVLKNRRLTWEYCDVPSCSTCGLRQYSQPQFRIKGGLFADIASHPWQAAIFAKHRRSPGERFLCGGILISSCWILSAAHCFQERFPPHHLTVILGRTYRVVPGEEEQKFEVEKYIVHKEFDDDTYDNDIALLQLKSDSSRCAQESSVVRTVCLPPADLQLPDWTECELSGYGKHEALSPFYSERLKEAHVRLYPSSRCTSQHLLNRTVTDNMLCAGDTRSGGPQANLHDACQGDSGGPLVCLNDGRMTLVGIISWGLGCGQKDVPGVYTKVTNYLDWIRDNMRPASGGGGSGGGGSGGGGSDIQMTQSPSSLSASVGDRVTITCRASQDVSNNVAWYQQKPGKAPKLLIFWSPWLYSGVPSRFSGSGSGTDFTLTISSLQPEDFATYYCQQGWDSPVTFGQGTKVEIKRGSTSGSGKPGSGEGSTKGEVQLVESGGGLVQPGGSLRLSCAASGFTISDFGIHWVRQAPGKGLEWVASIWPSGGYTYYADSVKGRFTISADTSKNTAYLQMNSLRAEDTAVYYCARSWFYSWYDYWGQGTLVTVSS
notes: Fusion: reteplase, flexible linker, 3D5 VL, 218 linker, 3D5 VH; also called reteplase-(3D5 scFv); reteplase-(3D5-scFv)
binding result [1]: binds | binding result [2]: binds
